One experiment has as its target K48-linked diubiquitin (UniProt P0CG48). Briefly: ITC. The following applies: domain or fragment.
The next experiment addresses K63-linked diubiquitin (UniProt P0CG48). Nature of the experiment: ITC. The following applies: domain or fragment.

The term Kd denotes the equilibrium constant for the complex coming apart. Low values mean higher affinity, high ones lower affinity.

human UBAP1 SOUBA domain (389-502), wild-type, sequence (Q9NZ09 389-502): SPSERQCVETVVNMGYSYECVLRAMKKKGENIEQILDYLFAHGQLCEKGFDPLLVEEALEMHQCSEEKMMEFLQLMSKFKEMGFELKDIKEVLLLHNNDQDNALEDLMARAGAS

As for “human UBAP1 SOUBA domain (389-502), wild-type (from UniProt Q9NZ09 389-502)”, the Kd stood at 65 µM in the experiment with K48-linked diubiquitin and 41 µM with K63-linked diubiquitin.

The values above are taken from article PMC3314968.
